# Experimental data from publication PMC5769749.
# Target: NC-RLuc (HIV-1 nucleocapsid fused to Renilla luciferase), expressed in HeLa cells (HIV-1)
# Test: proximity ligation
substance,measurement,value
Staufen1-YFP (from UniProt O95793-2 1-496) (natural protein),PLA spots per cell (spots per cell),103
